{"source": "patent US20260125455A1", "key": {"[1]": {"biological_target": "human complement protein C6 (human) (UniProt P13671)", "sequence (P13671 22-934 limits assumed)": "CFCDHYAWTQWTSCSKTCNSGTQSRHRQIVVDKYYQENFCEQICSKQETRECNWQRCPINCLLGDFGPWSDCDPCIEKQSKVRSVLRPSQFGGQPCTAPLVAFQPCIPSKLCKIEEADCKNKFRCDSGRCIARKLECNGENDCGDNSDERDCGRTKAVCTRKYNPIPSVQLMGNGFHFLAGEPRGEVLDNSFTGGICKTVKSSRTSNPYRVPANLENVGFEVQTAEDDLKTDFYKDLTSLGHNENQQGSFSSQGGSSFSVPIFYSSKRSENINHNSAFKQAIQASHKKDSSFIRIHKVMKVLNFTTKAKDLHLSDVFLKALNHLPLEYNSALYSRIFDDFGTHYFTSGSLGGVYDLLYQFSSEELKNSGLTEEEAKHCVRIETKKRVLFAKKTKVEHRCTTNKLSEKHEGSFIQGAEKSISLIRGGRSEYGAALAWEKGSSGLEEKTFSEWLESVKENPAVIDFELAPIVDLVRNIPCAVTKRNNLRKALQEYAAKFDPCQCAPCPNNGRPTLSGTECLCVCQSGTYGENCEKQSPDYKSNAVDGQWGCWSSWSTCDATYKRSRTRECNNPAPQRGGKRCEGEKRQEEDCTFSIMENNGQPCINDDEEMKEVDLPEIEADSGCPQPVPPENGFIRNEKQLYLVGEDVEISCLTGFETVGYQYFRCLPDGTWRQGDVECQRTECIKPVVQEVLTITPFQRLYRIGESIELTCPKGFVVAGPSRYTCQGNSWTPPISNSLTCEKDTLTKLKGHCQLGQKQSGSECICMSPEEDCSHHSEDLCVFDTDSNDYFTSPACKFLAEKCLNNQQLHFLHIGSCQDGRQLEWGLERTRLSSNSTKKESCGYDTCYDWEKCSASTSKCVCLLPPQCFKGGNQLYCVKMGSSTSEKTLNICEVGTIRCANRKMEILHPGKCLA", "experiment": "ELISA, wells coated with 'C6 from Comptech', control mouse IgG; replicate 2"}, "[2]": {"biological_target": "C6 no His (human) (UniProt P13671)", "sequence (P13671 22-934 limits assumed)": "as above", "experiment": "ELISA, wells coated with 'C6 no His', control mouse IgG; replicate 1"}, "[3]": {"biological_target": "human complement protein C6 (human) (UniProt P13671)", "experiment": "ELISA, wells coated with 'C6 from Comptech', control mouse IgG; replicate 1"}, "[4]": {"biological_target": "purified FIM1-2 domains of C6 (human) (UniProt P13671)", "sequence (P13671 766-934 limits assumed)": "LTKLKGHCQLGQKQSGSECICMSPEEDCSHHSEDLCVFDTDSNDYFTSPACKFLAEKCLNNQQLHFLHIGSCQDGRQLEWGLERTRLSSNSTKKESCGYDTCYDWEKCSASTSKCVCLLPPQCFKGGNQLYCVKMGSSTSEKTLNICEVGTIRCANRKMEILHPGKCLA", "experiment": "ELISA, wells coated with FIM1-2_His, control mouse IgG; replicate 1"}, "[5]": {"biological_target": "purified FIM1-2 domains of C6 (human) (UniProt P13671)", "experiment": "ELISA, wells coated with FIM1-2_His, control mouse IgG; replicate 2"}, "[6]": {"biological_target": "C6Δ1-79: SP_79-934_10xHis (human)", "sequence (P13671 79-934, stated change not applied)": "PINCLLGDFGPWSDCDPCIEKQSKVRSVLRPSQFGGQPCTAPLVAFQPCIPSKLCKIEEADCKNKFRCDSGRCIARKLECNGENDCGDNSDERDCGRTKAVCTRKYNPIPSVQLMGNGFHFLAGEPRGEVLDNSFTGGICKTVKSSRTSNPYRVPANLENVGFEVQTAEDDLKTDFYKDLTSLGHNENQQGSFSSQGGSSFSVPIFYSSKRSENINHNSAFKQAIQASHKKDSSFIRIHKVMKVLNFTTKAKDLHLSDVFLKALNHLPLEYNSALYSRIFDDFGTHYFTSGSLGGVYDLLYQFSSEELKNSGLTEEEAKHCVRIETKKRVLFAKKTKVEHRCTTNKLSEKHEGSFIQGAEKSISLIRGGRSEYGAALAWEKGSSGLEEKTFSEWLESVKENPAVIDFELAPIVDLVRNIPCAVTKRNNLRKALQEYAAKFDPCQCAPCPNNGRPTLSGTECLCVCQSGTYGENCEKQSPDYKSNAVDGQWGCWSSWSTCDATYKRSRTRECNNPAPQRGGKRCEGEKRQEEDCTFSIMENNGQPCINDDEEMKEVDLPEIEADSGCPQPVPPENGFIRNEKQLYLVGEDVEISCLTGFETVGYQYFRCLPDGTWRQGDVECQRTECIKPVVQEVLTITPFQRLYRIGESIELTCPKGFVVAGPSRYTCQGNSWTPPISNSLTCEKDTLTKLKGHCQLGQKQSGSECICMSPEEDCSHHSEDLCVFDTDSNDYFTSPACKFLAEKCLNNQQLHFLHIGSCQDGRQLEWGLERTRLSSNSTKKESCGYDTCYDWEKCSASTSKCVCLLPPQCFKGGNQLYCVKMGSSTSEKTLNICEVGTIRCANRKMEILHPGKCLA", "experiment": "ELISA, wells coated with the C6 construct, control mouse IgG; replicate 1"}, "[7]": {"biological_target": "C6Δ762: 1-762_10xHis (human)", "sequence (P13671 22-762, stated change not applied)": "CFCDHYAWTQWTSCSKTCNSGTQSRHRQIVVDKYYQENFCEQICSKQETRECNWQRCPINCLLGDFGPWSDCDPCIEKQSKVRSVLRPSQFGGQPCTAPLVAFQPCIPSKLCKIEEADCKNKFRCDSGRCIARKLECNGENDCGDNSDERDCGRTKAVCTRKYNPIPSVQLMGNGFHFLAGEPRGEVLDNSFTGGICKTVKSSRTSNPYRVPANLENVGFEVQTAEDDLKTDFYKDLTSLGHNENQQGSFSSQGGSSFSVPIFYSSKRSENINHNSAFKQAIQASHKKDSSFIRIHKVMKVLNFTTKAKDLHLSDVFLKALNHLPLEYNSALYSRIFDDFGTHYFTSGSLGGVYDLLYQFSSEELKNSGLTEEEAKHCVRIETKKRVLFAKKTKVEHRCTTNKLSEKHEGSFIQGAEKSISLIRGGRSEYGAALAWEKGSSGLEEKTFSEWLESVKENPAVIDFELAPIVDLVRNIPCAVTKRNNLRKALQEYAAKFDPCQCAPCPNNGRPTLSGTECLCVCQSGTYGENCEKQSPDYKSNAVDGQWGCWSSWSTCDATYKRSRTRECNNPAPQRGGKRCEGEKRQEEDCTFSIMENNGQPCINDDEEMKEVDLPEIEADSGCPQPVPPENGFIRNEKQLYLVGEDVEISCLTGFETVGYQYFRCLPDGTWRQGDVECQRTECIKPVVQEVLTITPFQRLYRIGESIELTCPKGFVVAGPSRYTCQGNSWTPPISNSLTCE", "experiment": "ELISA, wells coated with the C6 construct, control mouse IgG; replicate 1"}, "[8]": {"biological_target": "C6Δ634: 1-634_10xHis (human)", "sequence (P13671 22-634, stated change not applied)": "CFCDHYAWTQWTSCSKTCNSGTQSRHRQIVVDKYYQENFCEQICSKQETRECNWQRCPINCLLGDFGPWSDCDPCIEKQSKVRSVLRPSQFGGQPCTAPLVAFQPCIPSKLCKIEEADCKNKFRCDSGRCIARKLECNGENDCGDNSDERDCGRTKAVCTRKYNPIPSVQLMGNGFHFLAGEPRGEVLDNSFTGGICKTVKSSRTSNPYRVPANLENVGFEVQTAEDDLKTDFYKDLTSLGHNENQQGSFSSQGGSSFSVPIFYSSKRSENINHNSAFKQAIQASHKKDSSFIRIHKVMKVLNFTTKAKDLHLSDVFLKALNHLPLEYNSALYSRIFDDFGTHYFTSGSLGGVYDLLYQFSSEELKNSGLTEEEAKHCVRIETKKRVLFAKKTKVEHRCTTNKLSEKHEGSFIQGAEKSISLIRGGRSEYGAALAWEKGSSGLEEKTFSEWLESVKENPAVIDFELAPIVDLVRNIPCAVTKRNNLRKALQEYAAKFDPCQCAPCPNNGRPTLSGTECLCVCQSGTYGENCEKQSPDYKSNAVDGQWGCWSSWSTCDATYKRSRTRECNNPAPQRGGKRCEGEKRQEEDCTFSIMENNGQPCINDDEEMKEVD", "experiment": "ELISA, wells coated with the C6 construct, control mouse IgG; replicate 1"}, "[9]": {"biological_target": "C6: 1-934_10xHis (human)", "sequence (P13671 22-934)": "as the sequence (P13671 22-934 limits assumed) above", "experiment": "ELISA, wells coated with the C6 construct, control mouse IgG; replicate 1"}, "[10]": {"biological_target": "C6 no His (human) (UniProt P13671)", "experiment": "ELISA, wells coated with 'C6 no His', control mouse IgG; replicate 2"}, "[11]": {"biological_target": "C6Δ1-79: SP_79-934_10xHis (human)", "experiment": "ELISA, wells coated with the C6 construct, control mouse IgG; replicate 2"}, "[12]": {"biological_target": "C6Δ762: 1-762_10xHis (human)", "experiment": "ELISA, wells coated with the C6 construct, control mouse IgG; replicate 2"}, "[13]": {"biological_target": "C6Δ634: 1-634_10xHis (human)", "experiment": "ELISA, wells coated with the C6 construct, control mouse IgG; replicate 2"}, "[14]": {"biological_target": "C6: 1-934_10xHis (human)", "experiment": "ELISA, wells coated with the C6 construct, control mouse IgG; replicate 2"}}, "data": [{"substance": "mIgG (antibody)", "values": [{"measurement": "ELISA plate reading (no name or unit printed)", "setting": "[1]", "value": 0.0728}, {"measurement": "ELISA plate reading (no name or unit printed)", "setting": "[2]", "value": 0.0488}, {"measurement": "ELISA plate reading (no name or unit printed)", "setting": "[3]", "value": 0.0666}, {"measurement": "ELISA plate reading (no name or unit printed)", "setting": "[4]", "value": 0.0413}, {"measurement": "ELISA plate reading (no name or unit printed)", "setting": "[5]", "value": 0.0429}, {"measurement": "ELISA plate reading (no name or unit printed)", "setting": "[6]", "value": 0.0811}, {"measurement": "ELISA plate reading (no name or unit printed)", "setting": "[7]", "value": 0.0623}, {"measurement": "ELISA plate reading (no name or unit printed)", "setting": "[8]", "value": 0.0441}, {"measurement": "ELISA plate reading (no name or unit printed)", "setting": "[9]", "value": 0.0472}, {"measurement": "ELISA plate reading (no name or unit printed)", "setting": "[10]", "value": 0.115}, {"measurement": "ELISA plate reading (no name or unit printed)", "setting": "[11]", "value": 0.0935}, {"measurement": "ELISA plate reading (no name or unit printed)", "setting": "[12]", "value": 0.0648}, {"measurement": "ELISA plate reading (no name or unit printed)", "setting": "[13]", "value": 0.0472}, {"measurement": "ELISA plate reading (no name or unit printed)", "setting": "[14]", "value": 0.0481}]}]}
